Source: US20250339569A1 (3B PHARMACEUTICALS, published 2025)
Starred links: 1 amine or outer side, 2 acyl side, 3 side chain; linkers in the order of their positions; H or OH if unused. Positions of bridges follow the written chain, without caps; N, C: chain ends. Non-standard residues stand in square brackets, D forms with d. Primed or numbered codes have the meaning given here. *: point of attachment. Af3(DImAc) = 3-aminophenylalanine acylated on the ring amine with 2-{2,5-dioxo-octahydroimidazo[4,5-d]imidazolidin-1-yl}acetic acid, O=C(CN1C(=O)NC2NC(=O)NC21)Nc1cccc(C[C@H](N[*:1])C(=O)[*:2])c1; DOTA(In) = O=C1CN2CCN3CCN(CC(=O)*)CCN(CC2)CC(=O)[O][In]([O]1)[O]C(=O)C3; APAc″ = 2-(4-(amino)piperidin-1-yl)acetic acid, NC1CCN(CC(=O)*)CC1; DOTA = O=C(O)CN1CCN(CC(=O)O)CCN(CC(=O)*)CCN(CC(=O)O)CC1; NGly(3-aminopropyl) = O=C(CN(CCCN[*:3])[*:1])[*:2]; Phe(4-CF3) = N[C@@H](Cc1ccc(C(F)(F)F)cc1)C(=O)O; mXylylene = c1cc(C[*:1])cc(C[*:2])c1; Orn(Me2) = CN(C)CCC[C@H](N)C(=O)O; Cha = N[C@@H](CC1CCCCC1)C(=O)O; 4Amb = NCc1ccc(C(=O)O)cc1; AGLU′ = not defined here; Orn = NCCC[C@H](N)C(=O)O; 4Amc = not defined here; APAc = not defined here; Dab = NCC[C@H](N)C(=O)O; Inp′ = not defined here; Dap = NC[C@H](N)C(=O)O; Bn = c1ccc(C*)cc1

B1: 3BP-4261 (peptide)
peptide: {DOTA-4Amb}-DCE[dP]DWLTW[Dap]C-NH2
modifications: lactam 10-1; linker 2-11 via mXylylene
SMILES: CC(C)C[C@@H]1NC(=O)[C@H](Cc2c[nH]c3ccccc23)NC(=O)[C@H](CC(=O)O)NC(=O)[C@H]2CCCN2C(=O)[C@H](CCC(=O)O)NC(=O)[C@@H]2CSCc3cccc(c3)CSC[C@@H](C(N)=O)NC(=O)[C@H](CNC(=O)C[C@H](NC(=O)c3ccc(CNC(=O)CN4CCN(CC(=O)O)CCN(CC(=O)O)CCN(CC(=O)O)CC4)cc3)C(=O)N2)NC(=O)[C@H](Cc2c[nH]c3ccccc23)NC(=O)[C@H]([C@@H](C)O)NC1=O
B2: 3BP-4257 (peptide)
peptide: {DOTA}-SDCE[dP]DWLTW[Dap]C-NH2
modifications: lactam 11-2; linker 3-12 via mXylylene
SMILES: CC(C)C[C@@H]1NC(=O)[C@H](Cc2c[nH]c3ccccc23)NC(=O)[C@H](CC(=O)O)NC(=O)[C@H]2CCCN2C(=O)[C@H](CCC(=O)O)NC(=O)[C@@H]2CSCc3cccc(c3)CSC[C@@H](C(N)=O)NC(=O)[C@H](CNC(=O)C[C@H](NC(=O)[C@H](CO)NC(=O)CN3CCN(CC(=O)O)CCN(CC(=O)O)CCN(CC(=O)O)CC3)C(=O)N2)NC(=O)[C@H](Cc2c[nH]c3ccccc23)NC(=O)[C@H]([C@@H](C)O)NC1=O
B3: 3BP-3888 (peptide)
peptide: Ac-VYCK[dP]DWLEWSC-NH2
modifications: linker 3-12 via mXylylene; lactam 4-9
SMILES: CC(=O)N[C@H](C(=O)N[C@@H](Cc1ccc(O)cc1)C(=O)N[C@H]1CSCc2cccc(c2)CSC[C@@H](C(N)=O)NC(=O)[C@H](CO)NC(=O)[C@H](Cc2c[nH]c3ccccc23)NC(=O)[C@@H]2CCC(=O)NCCCC[C@H](NC1=O)C(=O)N1CCC[C@@H]1C(=O)N[C@@H](CC(=O)O)C(=O)N[C@@H](Cc1c[nH]c3ccccc13)C(=O)N[C@@H](CC(C)C)C(=O)N2)C(C)C
B4: 3BP-4046 (peptide)
peptide: Ac-VYCE[dP]KWLDWSC-NH2
modifications: linker 3-12 via mXylylene; lactam 6-9
SMILES: CC(=O)N[C@H](C(=O)N[C@@H](Cc1ccc(O)cc1)C(=O)N[C@H]1CSCc2cccc(c2)CSC[C@@H](C(N)=O)NC(=O)[C@H](CO)NC(=O)[C@H](Cc2c[nH]c3ccccc23)NC(=O)[C@@H]2CC(=O)NCCCC[C@H](NC(=O)[C@H]3CCCN3C(=O)[C@H](CCC(=O)O)NC1=O)C(=O)N[C@@H](Cc1c[nH]c3ccccc13)C(=O)N[C@@H](CC(C)C)C(=O)N2)C(C)C
B5: 3BP-3901 (peptide)
peptide: Ac-VYCE[dP]EWLKWSC-NH2
modifications: linker 3-12 via mXylylene; lactam 6-9
SMILES: CC(=O)N[C@H](C(=O)N[C@@H](Cc1ccc(O)cc1)C(=O)N[C@H]1CSCc2cccc(c2)CSC[C@@H](C(N)=O)NC(=O)[C@H](CO)NC(=O)[C@H](Cc2c[nH]c3ccccc23)NC(=O)[C@@H]2CCCCNC(=O)CC[C@H](NC(=O)[C@H]3CCCN3C(=O)[C@H](CCC(=O)O)NC1=O)C(=O)N[C@@H](Cc1c[nH]c3ccccc13)C(=O)N[C@@H](CC(C)C)C(=O)N2)C(C)C
B6: 3BP-4052 (peptide)
peptide: {DOTA(In)-APAc}-VYCE[dP]KWLEWSC-NH2
modifications: linker 3-12 via mXylylene; lactam 6-9; reading uncertain; also: indium complexed by DOTA
B7: 3BP-3958 (peptide)
peptide: Ac-VYCE[dP][Orn]WLEWSC-NH2
modifications: linker 3-12 via mXylylene; lactam 6-9
SMILES: CC(=O)N[C@H](C(=O)N[C@@H](Cc1ccc(O)cc1)C(=O)N[C@H]1CSCc2cccc(c2)CSC[C@@H](C(N)=O)NC(=O)[C@H](CO)NC(=O)[C@H](Cc2c[nH]c3ccccc23)NC(=O)[C@@H]2CCC(=O)NCCC[C@H](NC(=O)[C@H]3CCCN3C(=O)[C@H](CCC(=O)O)NC1=O)C(=O)N[C@@H](Cc1c[nH]c3ccccc13)C(=O)N[C@@H](CC(C)C)C(=O)N2)C(C)C
B8: 3BP-3960 (peptide)
peptide: Ac-VYCE[dP][Dab]WLEWSC-NH2
modifications: linker 3-12 via mXylylene; lactam 6-9
SMILES: CC(=O)N[C@H](C(=O)N[C@@H](Cc1ccc(O)cc1)C(=O)N[C@H]1CSCc2cccc(c2)CSC[C@@H](C(N)=O)NC(=O)[C@H](CO)NC(=O)[C@H](Cc2c[nH]c3ccccc23)NC(=O)[C@@H]2CCC(=O)NCC[C@H](NC(=O)[C@H]3CCCN3C(=O)[C@H](CCC(=O)O)NC1=O)C(=O)N[C@@H](Cc1c[nH]c3ccccc13)C(=O)N[C@@H](CC(C)C)C(=O)N2)C(C)C

target: T1, Fc-fusion protein of human carbonic anhydrase IX (human, UniProt Q16790 38-414); assay: SPR, captured hCAIX-Fc; t1/2 category C: 2.1-5.0 min
Protocol: Stock solutions of test compounds were prepared by dissolving each compound in DMSO. DMSO stock solution were diluted 1:1000 in Running Buffer without DMSO. […] SPR binding analyses were performed in Single Cycle Kinetic (SCK) mode at 25° C.
For each test compound, SPR raw data in the form of resonance units (RU) were plotted as sensorgrams using the Biacore™ T200 control software. The signal from the blank sensorgram was subtracted from that of the test compound sensorgram (blank corrected). The blank corrected sensorgram was corrected for baseline drift by subtracting the sensorgram of a SCK run without the test compound (running buffer only). […] Raw data and fit results were imported as text files in IDBS. The pKD value (negative decadic logarithm of dissociation constant) was calculated in the IDBS excel template.

t1/2 (half-life of the complex, SPR), 2.1 to 5 min:
{DOTA-Inp′}-DCE[dP]DWLTW[Dap]C-NH2 (lactam 10-1; linker 2-11 via mXylylene) [3BP-4256]
{DOTA-APAc″}-VYCE[dP]DW[Cha]TWSC-NH2 (linker 3-12 via mXylylene) [3BP-4143]
{DOTA-4Amc}-DCE[dP]DWLTW[Dap]C-NH2 (lactam 10-1; linker 2-11 via mXylylene; reading uncertain) [3BP-4258]
{DOTA-Gab}-DCE[dP]DWLTW[Dap]C-NH2 (lactam 1-10; linker 2-11 via mXylylene) [3BP-4263]
B1
B2
{DOTA-APAc″}-DCE[dP]DWLTW[Dap]C-NH2 (lactam 10-1; linker 2-11 via mXylylene) [3BP-4254]
{DOTA-APAc″}-VYCE[dP]D[Af3(DImAc)]LTWSC-NH2 (linker 3-12 via mXylylene) [3BP-4341]
{DOTA-APAc″}-VYCE[dP]D[Phe(4-CF3)]LTWSC-NH2 (linker 3-12 via mXylylene; not fully specified) [3BP-4139]

target: human carbonic anhydrase 9 (CAIX) (human, UniProt Q16790 38-459); assay: FACS competition on HT-29 cells, competitor tracer 3BP-2776; category B = pIC50 7.1-8.0
Protocol: CAIX-expressing human HT-29 colorectal cancer cells (DSMZ, RRID: CVCL_0320) were cultured in McCoys's 5A modified medium (Biochrom, #F1015) including 10% fetal calf serum (FCS), 2 mM L-glutamine, 100 U/ml penicillin and 100 μg/mL streptomycin. Cells were detached with Accutase (Biolegend, #423201) and washed in FACS buffer (PBS including 1% FCS). Cells were diluted in FACS buffer to a final concentration of 500.000 cells per ml. 200 μL of the cell suspension were transferred to a u-shaped non-binding 96-well plate (Greiner) and cells were washed in ice-cold FACS buffer.
When biotinylated compounds were used an additional incubation step with 1 μg/mL APC-Streptavidin (Miltenyi; #130-106-791) in 50 μL FACS buffer for 30 minutes on ice was performed.
Cells were washed twice with ice-cold FACS buffer and analyzed in an Attune NxT flow cytometer (Thermo Fisher). Median fluorescence intensities (MFI) of the APC/Cy5-channel were calculated by Attune NxT software.

pIC50, 7.1 to 8 pic50:
B3
B4
{DOTA-APAc}-VYCE[dP]DY(Bn)LTWSC-NH2 (linker 3-12 via mXylylene; not fully specified; reading uncertain) [3BP-4137]
{DOTA-APAc}-VYCE[dK]SWLEWSC-NH2 (linker 3-12 via mXylylene; lactam 5-9; reading uncertain) [3BP-4115]
B5
B6
{DOTA-APAc}-VYCE[dP]KWLEWSC-NH2 (linker 3-12 via mXylylene; lactam 6-9; reading uncertain) [3BP-3933]
{DOTA-APAc}-VYCE[dP]E(AGLU′)WLTWSC-NH2 (linker 3-12 via mXylylene; reading uncertain) [3BP-4120]
B7
{DOTA-APAc}-VYCE[dP][Orn(Me2)]WLTWSC-NH2 (linker 3-12 via mXylylene; reading uncertain) [3BP-4098]
{DOTA-APAc″}-VYCEG[NGly(3-aminopropyl)]WLEWSC-NH2 (linker 3-12 via mXylylene; lactam 6-9) [3BP-4252]
B8

target: T1, Fc-fusion protein of human carbonic …; assay: SPR, captured hCAIX-Fc; pKD category A: >8.0

pKD, > 8 pkd:
{DOTA-Inp′}-DCE[dP]DWLTW[Dap]C-NH2 (lactam 10-1; linker 2-11 via mXylylene) [3BP-4256]
{DOTA-APAc″}-VYCE[dP]DW[Cha]TWSC-NH2 (linker 3-12 via mXylylene) [3BP-4143]
{DOTA-4Amc}-DCE[dP]DWLTW[Dap]C-NH2 (lactam 10-1; linker 2-11 via mXylylene; reading uncertain) [3BP-4258]
{DOTA-Gab}-DCE[dP]DWLTW[Dap]C-NH2 (lactam 1-10; linker 2-11 via mXylylene) [3BP-4263]
B1
B2
{DOTA-APAc″}-DCE[dP]DWLTW[Dap]C-NH2 (lactam 10-1; linker 2-11 via mXylylene) [3BP-4254]
{DOTA-APAc″}-VYCE[dP]D[Af3(DImAc)]LTWSC-NH2 (linker 3-12 via mXylylene) [3BP-4341]
{DOTA-APAc″}-VYCE[dP]D[Phe(4-CF3)]LTWSC-NH2 (linker 3-12 via mXylylene; not fully specified) [3BP-4139]
